In patent publication US20060257397A1 (CRUCELL HOLLAND B V, published 2006):

Legend:
CD80 = target: T1, CD80 (UniProt P33681 35-288, limits assumed); assay: flow cytometry, phage antibody on transfected A431 cells
T1 construct: whole, on cells; also called A431 cell line transfected with CD80
T1 sequence (looked up): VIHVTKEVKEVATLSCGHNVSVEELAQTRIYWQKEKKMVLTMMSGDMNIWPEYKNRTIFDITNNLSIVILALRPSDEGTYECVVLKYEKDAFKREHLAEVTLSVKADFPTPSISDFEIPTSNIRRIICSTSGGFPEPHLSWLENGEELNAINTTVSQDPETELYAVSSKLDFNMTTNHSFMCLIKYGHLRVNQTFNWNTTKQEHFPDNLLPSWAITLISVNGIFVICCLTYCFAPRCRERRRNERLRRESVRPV
Procedure: (§1) In total, three selection rounds were performed and after both the second and third round, phage antibodies were tested for specific binding on a variety of cell-types, i.e., cultured DCs, PBLs, tonsil and synovial fluid cell suspensions, several cell lines including K562, U266, IM9, U937, THP, CEM, Fravel, HL60, Raji, RPMI8226, HepgII, HELA, HT29 and Jurkatt, a C1R cell line transfected with the molecule CD1a, and A431 cell lines transfected with the molecules CD80, CD83, and CD86. For staining of cells, 100 μl of the phage antibodies were blocked by adding 50 μl of PBS containing 4% milk powder for 15 minutes at room temperature. Next, 5×10⁵ cells in 50 μl of PBS containing 1% BSA were added to the blocked phage antibodies and the mixture obtained was incubated on ice for one hour. After that, the obtained mixture was washed three times with 200 μl PBS containing 1% BSA. To detect cell-bound phage antibodies, the cells were incubated with 20 μl of a 1:800 dilution of sheep anti-M13 polyclonal antibody for 20 minutes on ice. Thereafter, the cells were washed with PBS containing 1% BSA and incubated with 20 μl of a 1:700 dilution of PE-conjugated donkey anti-sheep polyclonal antibody for 20 minutes on ice.
(§2) To visualize DCs the cells were washed again with PBS containing 1% BSA, stained with 10 μl 1:10 diluted FITC-conjugated anti-CD1a antibody (BD PharMingen) and suspended in 200 μl of PBS containing 1% BSA. Flow cytometric analyses were performed using a FACScan (Becton Dickinson).
(§3) The twenty scFv phage antibodies derived from the selections described above bound exclusively to the cell line transfected with CD1a (see lower right panel of FIG. 2 for binding of the representative scFv phage antibody called SC02-113 to the CD1a-transfected cell line). […]

CD83 = target: T2, CD83 (UniProt Q01151 20-205, limits assumed); assay: as above
T2 construct: whole, on cells; also called A431 cell line transfected with CD83
T2 sequence (looked up): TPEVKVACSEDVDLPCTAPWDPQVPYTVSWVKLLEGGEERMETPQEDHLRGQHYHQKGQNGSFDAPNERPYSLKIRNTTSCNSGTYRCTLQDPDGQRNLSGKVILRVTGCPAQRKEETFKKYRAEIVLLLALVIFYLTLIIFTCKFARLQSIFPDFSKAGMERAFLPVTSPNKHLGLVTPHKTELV
Procedure: as §1, §2, §3

CD86 = target: T3, CD86 (UniProt P42081 24-329, limits assumed); assay: as above
T3 construct: whole, on cells; also called A431 cell line transfected with CD86
T3 sequence (looked up): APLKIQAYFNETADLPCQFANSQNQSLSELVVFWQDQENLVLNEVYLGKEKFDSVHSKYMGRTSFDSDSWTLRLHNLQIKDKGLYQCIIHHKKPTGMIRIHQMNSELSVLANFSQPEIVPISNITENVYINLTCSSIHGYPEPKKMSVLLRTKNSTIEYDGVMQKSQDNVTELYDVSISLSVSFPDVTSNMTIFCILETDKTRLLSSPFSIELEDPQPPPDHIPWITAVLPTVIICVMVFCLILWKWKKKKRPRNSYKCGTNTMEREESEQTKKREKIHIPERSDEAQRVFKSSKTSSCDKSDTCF
Procedure: as §1, §2, §3

human CD1a = target: T4, human CD1a (human, UniProt P06126 17-327); assay: flow cytometry, phage antibody on C1R cells transfected with CD1a
T4 construct: whole, on cells; also called C1R-CD1a; CR1-CD1a
T4 sequence (P06126 17-327): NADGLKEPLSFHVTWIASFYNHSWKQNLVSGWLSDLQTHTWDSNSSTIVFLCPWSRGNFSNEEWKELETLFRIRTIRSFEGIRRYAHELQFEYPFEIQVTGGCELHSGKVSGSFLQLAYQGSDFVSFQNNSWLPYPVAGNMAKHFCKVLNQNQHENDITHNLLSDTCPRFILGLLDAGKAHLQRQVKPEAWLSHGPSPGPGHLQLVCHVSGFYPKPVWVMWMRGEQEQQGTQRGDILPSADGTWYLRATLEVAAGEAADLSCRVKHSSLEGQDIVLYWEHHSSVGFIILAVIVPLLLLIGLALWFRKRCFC
Procedure: In total, three selection rounds were performed and after both the second and third round, phage antibodies were tested for specific binding on a variety of cell-types, i.e., cultured DCs, PBLs, tonsil and synovial fluid cell suspensions, several cell lines including K562, U266, IM9, U937, THP, CEM, Fravel, HL60, Raji, RPMI8226, HepgII, HELA, HT29 and Jurkatt, a C1R cell line transfected with the molecule CD1a, and A431 cell lines transfected with the molecules CD80, CD83, and CD86. For staining of cells, 100 μl of the phage antibodies were blocked by adding 50 μl of PBS containing 4% milk powder for 15 minutes at room temperature. Next, 5×10⁵ cells in 50 μl of PBS containing 1% BSA were added to the blocked phage antibodies and the mixture obtained was incubated on ice for one hour. After that, the obtained mixture was washed three times with 200 μl PBS containing 1% BSA. To detect cell-bound phage antibodies, the cells were incubated with 20 μl of a 1:800 dilution of sheep anti-M13 polyclonal antibody for 20 minutes on ice. Thereafter, the cells were washed with PBS containing 1% BSA and incubated with 20 μl of a 1:700 dilution of PE-conjugated donkey anti-sheep polyclonal antibody for 20 minutes on ice. […]

B1: scFv phage antibody SC02-115 (scFv)
scFv: QVQLVQSGAEAKKPGASVKVSCKASGYTFTGYYMHWVRQAPGQGLEWMGWISAYNGNTNYAQKLQGRVTMTTDTSTSTAYMELRSLRSDDTAVYYCARSQMPSYFDYWGQGTLVTVSRGGGGSGGGGSGGGGSSELTQDPAVSVALGQTVRITCQGDSLRSYYASWYQQKPGQAPVLVIYGKNNRPSGIPDRFSGSSSGNTASLTITGAQAEDEADYYCNSRDSSGNHVVFGGGTKLTVLG
Which results are given for B1?
binding result (CD80): no binding; binding result (CD83): no binding; binding result (CD86): no binding; binding result (human CD1a): binds
